In publication PMC8980629, “c-Abl kinase-mediated phosphorylation of γ-tubulin promotes γ-tubulin ring complexes assembly and microtubule nucleation” (The Journal of Biological Chemistry, 2022):

Biological target: T1, Flag-γ-tubulin (human, UniProt P23258 1-451)
T1 construct: γ-tubulin (tubg1), full-length cDNA amplified from an MCF-7 cDNA library, in a pcDNA3.0-based vector; also called wild-type Flag-γ-tubulin; source: HEK293T, transfected, in lysate; anti-Flag immunoprecipitated and resolved by SDS-PAGE for the far-Western; not shown: Flag, N-terminal, kept
Experiment: far-Western, overlay or dot blot; anti-Flag immunoprecipitates from HEK293T resolved by SDS-PAGE and blotted onto PVDF; membrane incubated with purified GST or GST fusion protein 2 h at room temperature; probed with anti-GST
Conditions: both partners purified

T1 sequence (P23258 whole entry): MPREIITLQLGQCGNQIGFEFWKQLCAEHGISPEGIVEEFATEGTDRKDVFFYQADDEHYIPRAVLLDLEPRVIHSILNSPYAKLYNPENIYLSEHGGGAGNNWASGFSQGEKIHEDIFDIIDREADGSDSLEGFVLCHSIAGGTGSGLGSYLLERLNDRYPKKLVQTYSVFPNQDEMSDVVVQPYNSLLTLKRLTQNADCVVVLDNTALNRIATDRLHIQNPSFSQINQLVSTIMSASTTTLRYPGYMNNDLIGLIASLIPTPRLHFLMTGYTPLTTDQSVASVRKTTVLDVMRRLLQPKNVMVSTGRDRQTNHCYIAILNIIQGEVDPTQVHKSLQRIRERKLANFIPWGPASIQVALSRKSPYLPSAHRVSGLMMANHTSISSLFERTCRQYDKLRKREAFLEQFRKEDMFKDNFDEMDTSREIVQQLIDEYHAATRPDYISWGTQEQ

- binding result: binds
B1: GST-c-Abl SH2 (domain or fragment, UniProt P00519 127-217, looked up)
chain: WYHGPVSRNAAEYLLSSGINGSFLVRESESSPGQRSISLRYEGRVYHYRINTASDGKLYVSSESRFNTLAELVHHHSTVADGLITTLHYPA
notes: SH2 domain of c-Abl; source: purified GST fusion protein; not shown: GST, N-terminal, kept
